19 sequences from the DeepSol protein solubility set can be followed below.

The series in a line: soluble on expression in E. coli; label from the status in PepcDB or PDB records.
With “MGSDKIHHHHHHMKSIKELYRIGTGPSSSHTMGPRKAAEMFLTRHPEAASFKVTLYGSLAATGKGHMTDVAIIDTLKPTAPVDIIWQPKIFLPFHPNGMNFVALDAGGNELENWTVYSVGGGALAEDNKQPSIESPEVYSMNSMTEILDWCEHTGKSYWEYVKECEDPDIWDYLKEVWDTMKESVQRGLEQEGVLPGPLNLRRKASTYYIRATGYKASLQSRGLVFAYALAVSEENASGGKIVTAPTCGSCGVMPAVLYHLAKSREFSEMRILRALATAGLIGNIVKQNASISGAEVGCQGEVGVACAMASAAANQLFGGSPAQIEYAAEMGLEHHLGMTCDPVCGLVQIPCIERNAYAAARALDANLYSSFTDGMHRVSFDKVIQVMKQTGHDLPSLYKETSEGGLAKDYKPM”, the “soluble on expression in E. coli” value is on record as “not soluble”.

For “LPTSNPAQELEARQLERTTRDDLINGNSASCADVIFIYARGSTEAGNLGTLGPSIASNLESAFGKDGVWIQGVGGAYRATLGDNALPRGTSSAAIREMLGLFQQANTKCPDATLIAGGYSQGAALAAASIEDLDSAIRDKIAGTVLFGYTKNLQNRGRIPNYPADRTKVFCNTGDLVCTGSLIVAAPHLAYGPDARGPAPEFLIEKVRAVRGSA”, the “soluble on expression in E. coli” value is on record as “soluble”.

As to “MSLKLYYMPAACSLSPHIVANELELDIEFVRVNFKDHKTEGGQDYYDINPNGYIPALDVGNGAMLFEGPAIVQYMADLKPQSGLAPANGTFERYKLQEMLSFLSTEIHKGFIPLLYAKQAGAYLETATPKLEKRYAWIDNLLASQRFLMGENFTVADAYLFALTSWGQASWLKSYYGADIHFDDLLNLRGWYERVKERDAVKQSILEEGLSLSEGHHHHHH”, the “soluble on expression in E. coli” value is “soluble”.

With “MGTFTLHQGQTNLIKSFFRNYYLNAELELPKDMELREFALQPFGSDTYVRHLSFSSSEELRDYLVNRNLPLHLFYSSARYQLPSARNMEEKAWMGSDLLFDIDADHLCKLRSIRFCPVCGNAVVSEKCERDNVETLEYVEMTSECIKRGLEQTRNLVEILEDDFGLKPKVYFSGNRGFHVQVDCYGNCALLDSDERKEIAEYVMGIGVPGYPGGSENAPGWVGRKNRGINGVTIDEQVTIDVKRLIRIPNSLHGKSGLIVKRVPNLDDFEFNETLSPFTGYTIFLPYITIETEVLGSIIKLNRGIPIKIKSSIGIYLHLRNLGEVKAYVR”, the “soluble on expression in E. coli” value is reported as “soluble”.

Take “MKLNLITVSLATLVAAGAFPAHAGPQAHVVCGYHHTLGDDAIMMFGKANQAMWHDFFGNTHTDAVSTYQTLRAQPDTTCDNKADSSAYWAPSMKLPDGEIVNPAYQKTYYQSTNVAQYPLHPFPAGLELLAGDHHGTGPSSAITFLCANGKGYTNKVGEICGLRKAGDAVQFNIGIAFPNCWDGVNLKPTHSHNNAIYADHGKCSADYPVKIPTVNMNIAWVLPQISSLDTSKVELSMDPVMHGETREERWGSLYTAHADFMNGWTEDGAQFMTDLCMNQGLDCGTTVPYAYSKAEENTWVSSEDDKPHASVDTLYVQDDWTNGGRTQHPETLTLVKFKIPPLPANMDASLFKYRIRLFGGKTEANGADQIFFYPTSSDWHVSTVSWNNKPAINYRSDAVLYLDHSHEYRMVDVDKAVRKALAEGKTEISWYIGGDRQGNHYDFTPADSKQSLVLMLTGFKKTPELLEHHHHHH”: the “soluble on expression in E. coli” value is listed as “not soluble”.

Take “MGSDKIHHHHHHVEDLKNLTNQAVEKQPEIVKRFNEMIDSQHLSHAYLLTGAGGIGKKDVAQWVAMRLFCIDLQGSMPCGECEECTRIMSGQHPDVVEIAPDGQSIKVEQVRFLKSEFSKSGVEGARKVFIIEQANKMTTSAANSLLKFIEEPSGEVTAFLLAENRSLMLPTIVSRTEIIELKPLPKDRLIKELTEQNIAETDARILTRLTNDMSEIQTLVDNNWILDAHKALEKWFITATTGDITAFVDVQTRVMALAKDRFYQEKILDLMMLYAMDLLELKFDQETITYEANRRQLQELADQTNVRQLLAVADVLLPLKHQLSQNLNFQSVVEKATIKICNIFKMRGR”: the “soluble on expression in E. coli” value is recorded as “not soluble”.

For the sequence “MGSDKIHHHHHHMSEYLEIPELNKAFPFRSFVNEGEVLVYPHWHKEIEIIYALKGSLNLGVNDMPIQLNEGEIQIINGGDVHYFLASPNSERIVIQFDLSLFQEEMQMDGQNGTLREMLTEMAHLSREWPEETTAKVQSLIRNIHLESSNDSPGKHYILKADLLAIIGLIYREIPQKKTQPDSVISEKAVLKSKETLQKLDQIFSYVEKHYQEPVSLQEVADYTGFSTYYFTKFFKRNTGMTFVTFLNDYRLNKAKWMLLNEAFPVTEVAELAGFSSVKTFHHAFKRAMGVAPLKYRKTIYGNN”, the “soluble on expression in E. coli” value is on record as “not soluble”.

With “MGSDKIHHHHHHMEAQDHNNEQQVTEYQVMSYLRAHPQFFEHHTGLLAELYLPSPHGQGTVSLAERQQLAQRDRIRVLDAKLAQLMKYGEENDAIGEKVHRLSLGLLATERMEVLVSLLEHSLHEDFQVPYVSLRLWAKPRESGNGSLPIFASVDQELQRWAQGLATPYCGNRPGMPLQGWFGVEARPASFAVMALKAQQVFGVLALASDDDKRFYPDMGTLYLKRISELISAALLRHIIV”, the “soluble on expression in E. coli” value was “not soluble”.

Turning to “MGSDKIHHHHHHMKITKVECIPVSMPLKKPLRLPNVTITKLDTLLLRLHTETGLVGIAESGDTSSWYRGESQASMVSMICDIFAPRILLGEDPCNIEKIVGAMDTLARDNNQAKGLVDCALHDLKGKVLNVPVYQLLGGRTRESAPLGWVLSAGEPDKVAEAALSAREAGFVAFKLKVGRGTFDNDVATAAAVRKALGDSARICLDANGSWNYEQALRTIRRLDAYRLDFVEQPLPHWDIEGMARLRQRIDTPVYADEAAQELHHLKEIAERRAADGVILKVQKVGGLLKAQRFLAVAQMFDLPVMCSTLIGSGVEACPTAHLWVANQWACQFISESTGPLAVHGVWNSEDIPQGADLALQGARFHRGHVSPGDGPGLGVELNEALLGQIRTEGRPARVVNL”, the “soluble on expression in E. coli” value was “not soluble”.

Regarding “MKIVILAPTITPIVSYGGLGDVMRDLPKFLKKGNEVVVLTLNHYNRYFTLPYEDIKKITVIYKGAKITFDVLRTKHPTTGVDLIVFSNESVNNLNVWDPIKYEIFADLVITYLDEVKDIDVVSGHDWMCGLAIAKCNDILDLPTTLTIHNEAFKGEMIEYKGEVMTFLELGIKYADAVNTVSPSHAEEIKNYPYIKKYLNNKPFCGILNGIDIDEYDPMKIIERMCNLSNNKLDPRNYAYISPYSAEDSHNIKPKIKYSWFYRGGVYEYVEDWNKIDKGISATDVEVHGGVDGDIETPLIGFVGRATHQKGFNTMFEAIPELLEKHDIRFVFLTKGDRDIEERLKNLANEHDGRILALIGYSLPLSSLVFAGSDWIIMPSYWEPCGLVQMEAMAYCTPVIATETGGLKDTIIPLHPNPYEHPNFDKATGVLFKVPDKVGFMWGVEHALNWTFYKLNEICMFMQYIRYKCPKHPYDENSPLSMMMKNCYYHVFRNLSWQNSPSIRKYKGLFGGAIYNHYLQP”, the “soluble on expression in E. coli” value was “soluble”.

“SLPKLHMFYLGGNAGRSNIEVHDIQFAVCDDYREAVPALKAAWFGDADKIHIDGWQVVEWADGYDIAVSETPKTKMPSENAPRLYFANVGGYRAGQLAEAHAFGLFAAATPAEAKQKALQTLLTDSYVQQHKDNLKDVDNLLALDRIGNFHIRLTPNPHGKPAEIGFQGYLPI”: the “soluble on expression in E. coli” value is recorded as “soluble”.

With “GPGSMAGAADPRDEDAKAVNAVLRLPEDDFYAVLGLGEAREDATERDIKNAFRRLSKKYHPDVATGDQDSYRLVYQRVQRAYEVLGDRRKRKIYDILGIDGVTRLEKPQQQQQMNPFFAFFGVGQQADAERGKDMVLLMVVPLEDIYRGAAHTSRFAKRKICRACKGTGARSGEDVVKCPHCQGRGRLAQRVQIAPGFVQQVEQVCPHCQGKGTHVAHMCPVCRGKMVLPGEAVLSVDIEEGLPEGHVLTYELEADQAPGQVPGDVLLTVISAPHPVFHRSGNDLYANVSITLKEALLGFKKTLAHLDGHNVELHWDGVMQNTQQVRIAGEGMPRHHVPSERGDLYITYNVLLPEALTAEQRALFQEHFA”, the “soluble on expression in E. coli” value is “not soluble”.

As to “MGSDKIHHHHHHMQVLLVGGTGTLGRQIARRAIDAGHQVRCMVRKPRKGAFLQEWGCELTCGDLLDPETIDYSLDGIDAVIDAATSRPDDSASVYTTDWDGKLNLLRACEKAGVTRYVFLSLLAAEKHLNVPLMDIKFCTERLLADSSFDYTILQGVAFMQGLIGQIAIPVLENQTVWVSETPTAVAYMNTQDVARFAVAALERPETIRRSFPVVGPKAWTSEEIVQFCEKSSSKTAKVIRVSPFLIGLSQRVVSFFEQSVNMAERLAFAEVTGGGIALDAPMDDTYSCFGLDSSETTPLESYISEYYDTILKRLREMEADLDEESRKKLPF”, the “soluble on expression in E. coli” value is listed as “not soluble”.

As for “MKEIILLVFLSRKEQTNRSANIFSSVLKGFEAQTIVYSLSYQKFYSNRKNKHKDETILVTAIYRCRRNPHGMQLKQCSPSVGSGAKTRTSGRLRP”, the “soluble on expression in E. coli” value is “not soluble”.

With “MAHHHHHHMQPLLRVPRAVHPHVERPLLGYLPPPVSHFSTKRNNCTGYDHPRGAPPQLNKTYHSQANFRDTKMEFCQVDLDEFCYKQFDSTKKSCSFIPYDKNEFLDKVNELIRQKKIKVVPGYAGFCKHIFVENFTEATVETIEINNKNRDLIKTDYISRRDNELPVLIRWISKKDVKDIIKAKYLDLILYSREQIEKENKETKTVPNRKSNCLYSIICIKPQNVDYELPMTPITMLRNTLISEGGSGINLNRDKYLESVKYWRHHVSIIDN”, the “soluble on expression in E. coli” value is “soluble”.

Take “MGSDKIHHHHHHMAFIQPDLQFNPDTLDNLVIGIAADMGEHDSGAHHHSKAQLLYASAGCMRFYLADTQVVLPPTRAAWLPAGVVHHVTMRNVAAYRSLYFEPETVASLPSRVTIFHVNPLLKALIDTMSFWPWDKPRQSQHNAFSLLCEELENATAENLVLPLPQDKRLKTWLKQLQQKKQPANLKKMAIEIGASERTISRIFNAQTGMAYQAWRQQWRLLSAIEQLAAGASVAQVGFNLQFSSDSAFISFFKQYTGTTPAQYFKSPSV”: the “soluble on expression in E. coli” value is recorded as “not soluble”.

Regarding “SLRPIPYLPNMIGLITGRASAAERDVTTVASARWPAARFAVRNVAVQGPNAVGQIVEALRELDRDPDVDVIVLARGGGSVEDLLPFSDETLCRAIAACRTPVVSAVGHEPDNPLCDLVVDLRAATPTDAAKKVVPDTAAEQRLIDDLRRRSAQALRNWVSREQRAVAQLRSRPVLADPMTMVSVRAEEVHRARSTLRRNLTLMVAAETERIGHLAARLATLGPAATLARGYAIVQTVAQTGPEGGSEPQVLRSVHDAPEGTKLRVRVADGALAAVSEGQTNGL”, the “soluble on expression in E. coli” value was “soluble”.

For “MNNVLILLDNPDDWKPYCETKSILTVSDYLKNKPVEKDRKLVINLSNDYSYNSEGYYCSLLAQTRGQRVIPDVDIINKLETGTGIRMDRSLQALCYQWIQKNGIKSDIWYLNIYFGKCREKGLERVARFIFENYPCPLLRVALNTHPKNQIESIQFLPLNRLDDEEQDFFANTLDNFNKKIWRAPKSAKAPRYSLAVLIDPKEKFPPSNKGALHKLSEVAKKMNIHVEMITEDDAMRLLEFDALFIRTTTSLNHYTFHLSQLAAQNGMVVIDDPLSIIRCTNKVYLKELFEKERIPAPKSTLIFQSNENSFEQISEQVGAPFILKIPDGSYSIGMKKVSNEEELKTSLELLFEKSAILLAQAFTPTEFDWRVGLLNGVPLYACKYYMAKGHWQIYCHYDSGRSRCGLVDTIPIYQVPRVVLDTAIKAANLIGKGLYGVDLKMVDDKAYVIEINDNPSIDHELEDAIIGDEMYYRLLNHFEQALEMKHY”, the “soluble on expression in E. coli” value is given as “not soluble”.

With “MVKLIHTLADHGDDVNCCAFSFSLLATCSLDKTIRLYSLRDFTELPHSPLKFHTYAVHCCCFSPSGHILASCSTDGTTVLWNTENGQMLAVMEQPSGSPVRVCQFSPDSTCLASGAADGTVVLWNAQSYKLYRCGSVKDGSLAACAFSPNGSFFVTGSSCGDLTVWDDKMRCLHSEKAHDLGITCCDFSSQPVSDGEQGLQFFRLASCGQDCQVKIWIVSFTDILARRTEHQLKQFTEDWSEEDVSTWLCAQDLKDLVGIFKMNNIDGKELLNLTKESLADDLKIESLGLRSKVLRKIEELRTKVKSLSSGIPDEFICPITRELMKDPVIASDGYSYEKEAMENWISKKKRTSPMTNLVLPSAVLTPNRTLKMAINRWLETHQK”, the “soluble on expression in E. coli” value is listed as “soluble”.
